By stoichiometry N is commonly meant a count of units in the complex or per binding partner.

Assay [1] concerns the target PEDV S-Trimer (trimerized PEDV spike protein, 2P-stabilised, residues 1-1,319 with C-terminal GCN4 trimerization motif) (porcine epidemic diarrhea virus (PEDV)). The assay can be described thus: SEC; purified protein on Superose 6 increase 10/300 GL, 20 mM HEPES pH 7.6, 150 mM NaCl; single peak compared with the 669 kDa standard. A general note: In gel filtration, larger molecules generally elute earlier.

The target in assay [2] is TGEV S-Trimer (trimerized TGEV spike protein, 2P-stabilised, residues 1-1,388 with C-terminal GCN4 trimerization motif) (transmissible gastroenteritis virus (TGEV)). The assay is described as above.

“PEDV S-Trimer (trimerized PEDV spike protein, 2P-stabilised, residues 1-1,319 with C-terminal GCN4 trimerization motif) (natural protein)” showed a stoichiometry N in assay [1] of 3.

The substance “TGEV S-Trimer (trimerized TGEV spike protein, 2P-stabilised, residues 1-1,388 with C-terminal GCN4 trimerization motif) (natural protein)” showed a stoichiometry N in assay [2] of 3.

Source of the values: article PMC12645917.
